Test results from PMC5794259, “Novel ATP-cone-driven allosteric regulation of ribonucleotide reductase via the radical-generating subunit” (eLife, 2018).

B1: Leeuwenhoekiella blandensis NrdAi (NrdA, catalytic subunit of class I ribonucleotide reductase) (enzyme, UniProt A3XHF8 1-600, looked up)
chain: MRENTTKLENSTETNVQHTKDNDLLKARRDALQDATEKNTDEPSFDWLTEHSRSFLAAGYLSEGVSAEERIREIADRAEEILRMPGFSDKFYKYMGEGYFSLASPVWSNFGKKRGLPISCFGSHIDDDMGNILYTQSEVGMMSKLGGGTSGYFGKIRHRGAAVKNNGYASGAVHIMQLFDKMVDVVSQGSVRRGRFSPYLPISHPDIKEFLEIGTEGNSIQQLTHGVTVDSTWMQEMIDGDTDKREVWAKVLQRRGEMGYPYIFYTDNANNGKPDVYKDKGHDIYASNLCTEIMLPSSDEWSFVCVLSSINVLHYDKWKNTDAVETMVCFLDAVLTEFIDKLEEYRDSDNRDHRQTFMFMERAYNFAKSNRALGLGVLGWHSLLQSKRHAFDSQEAYDLNSEIFREIKQRSYKASEELAEKFGEPETLKGYGRRNATLNAIAPTTSSAFILGQVSQGIEPIWSNVYVKDIAKIKTTIKNPFLEELFEEKGMNTPEVWRSVRDNDGSVQHLEFLTEQEKDVFKTYAEIDQMAIIYQAANRQNHIDQGQSINLLVHPDMPIKEINKIHITAWKLGLKSLYYQHSMNAAQKFKQKKECVSCEA
notes: NrdAi, catalytic subunit of the class I RNR of Leeuwenhoekiella blandensis sp. nov. strain MED217; amplified from genomic DNA with primers from the start codon to the stop codon; pET-nrdA with N-terminal hexahistidine tag and thrombin site; no cleavage is told for NrdA (theoretical monomer mass printed as 70.6 kDa); source: E. coli BL21(DE3), pET-28a(+), purified (HisTrap Ni Sepharose, gel …)
B2: Leeuwenhoekiella blandensis NrdB, thrombin-cleaved (used for crystallization) (enzyme)
chain: GSHMSSQEIKKIIKRDYSTAPFVLEKITNAIANAMAALGHGSEQDAKLISMQVYESLLNNKEQESEYIPTVEQVQDMVEDKLMSSEFHDVAKAYIIYRNKRALERKTNIFEKRINLKPYEYPELNEYVAAIRHSYWIHTEFNFTSDIQDFKTGLSEVERSAIKNTMLAISQIEVAVKTFWGDVHHRLPKPEIAAVGATFAESEVRHHDAYSHLLEILGLNEEFKELKKKPVIMKRVHYLETSLKHAKSDDDREYTESILLFALFIEHVSLFSQFLIIMAFNKHKNMLKGISNAVEATSKEEQIHGDFGVDIINIIKKENPEWFDEEHNNLIKEMCLNSFEAESKVVDWIFEKGELDFLPKAVINEFLKNRFNKSLEAIGLEKLFDIDEALLQETEWFDDEIIGTKHGDFFVKRSINYSKRTQSITSDDLF
notes: three additional residues (GlySerHis) left at the N-terminus from the thrombin cleavage site; NrdBi of Leeuwenhoekiella blandensis sp. nov. strain MED217; GenBank EAQ51288; Crystallized with 5 mM dATP, 20 mM MgCl2; two dATP per ATP-cone; metal site occupied by Ca2+ from the crystallization medium; also called thrombin-cleaved NrdB; source: E. coli BL21(DE3), purified (HisTrap, gel filtration), …

Columns and labels:
[1] = biological target: the molecule itself; test: SEC; with 100 µM dATP; Superdex 200 10/300 GL at room temperature; 50 mM Tris-HCl pH 7.6, 150 mM KCl, 10 mM MgCl2; NrdB 10 µM, NrdA at rising concentrations
[2] = biological target: T1, Leeuwenhoekiella blandensis NrdBi (wild type NrdB, radical-generating subunit of class I ribonucleotide … (Leeuwenhoekiella blandensis sp. nov. …, UniProt A3XHF9 1-427)); test: SEC; with 3 mM ATP in sample and buffer; Superdex 200 PC 3.2/30 at 7°C; 50 mM Tris-HCl pH 8, 50 mM KCl, 10% glycerol, 10 mM magnesium acetate, 2 mM DTT; proteins 20 µM each; eluted fractions analysed by SDS PAGE; conditions: both partners purified
T1 construct: NrdBi, radical-generating subunit of the class I RNR of Leeuwenhoekiella blandensis sp. nov. strain MED217; GenBank EAQ51288; amplified from genomic DNA with primers from the start codon to the stop codon; ATP-cone 1-103, linker 104-106, core 107-398, C-terminus 399-427; pET-28a(+) construct with N-terminal hexahistidine tag and thrombin site; Oligomeric state depends on nucleotide: dimer with …
T1 sequence (looked up): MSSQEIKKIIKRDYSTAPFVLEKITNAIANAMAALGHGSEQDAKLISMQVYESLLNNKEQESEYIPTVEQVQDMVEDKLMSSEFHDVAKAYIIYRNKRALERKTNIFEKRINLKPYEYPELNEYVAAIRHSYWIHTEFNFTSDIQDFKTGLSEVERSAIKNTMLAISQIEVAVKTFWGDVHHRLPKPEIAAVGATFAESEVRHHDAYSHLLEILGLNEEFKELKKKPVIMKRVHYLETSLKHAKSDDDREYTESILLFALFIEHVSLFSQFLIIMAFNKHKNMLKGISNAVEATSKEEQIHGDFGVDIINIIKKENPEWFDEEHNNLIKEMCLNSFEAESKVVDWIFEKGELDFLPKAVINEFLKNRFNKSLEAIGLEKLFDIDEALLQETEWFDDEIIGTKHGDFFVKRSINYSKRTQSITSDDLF

[3] = biological target: the molecule itself; test: crystal structure; NrdB 9.6 mg/ml with 20 mM MgCl2, 2 mM TCEP, 5 mM dATP; 0.2 M CaCl2, 0.1 M Tris pH 8.0, 20% PEG 600, 3% 6-aminohexanoic acid, 20°C; space group P1, one tetramer in the unit cell

| Binder | stoichiometry N [1] | stoichiometry N [2] | stoichiometry N [3] |
| --- | --- | --- | --- |
| B1 | 2 | 1 | – |
| B2 | – | – | 4 |
